Reference: PMC8617076, “Structure of HIV-1 Vpr in complex with the human nucleotide excision repair protein hHR23A” (Nature Communications, 2021)
Substitutions are numbered along the chain they refer to. In names and notes the source's numbering stands.

T1: Trx-hHR23AFL (human, UniProt P54725 1-363)
T1 construct: human hHR23A, full length (FL); source: E. coli Rosetta 2 (DE3) or Rosetta 2 (DE3) pLysS, purified (HisTrap, gel filtration)
T1 sequence (looked up): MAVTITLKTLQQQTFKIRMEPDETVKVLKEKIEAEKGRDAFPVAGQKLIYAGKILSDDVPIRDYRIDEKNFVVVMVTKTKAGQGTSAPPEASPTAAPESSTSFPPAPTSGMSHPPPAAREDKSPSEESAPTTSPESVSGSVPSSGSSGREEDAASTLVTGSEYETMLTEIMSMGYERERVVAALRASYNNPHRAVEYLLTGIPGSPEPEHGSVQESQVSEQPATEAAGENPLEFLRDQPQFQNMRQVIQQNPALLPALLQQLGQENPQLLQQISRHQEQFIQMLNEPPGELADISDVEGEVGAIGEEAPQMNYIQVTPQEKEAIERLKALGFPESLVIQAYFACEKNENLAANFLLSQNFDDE

T2: GST-hHR23B, residues 1–409 (human, UniProt P54727 1-409)
T2 construct: human hHR23B, residues 1–409; source: recombinant
T2 sequence (looked up): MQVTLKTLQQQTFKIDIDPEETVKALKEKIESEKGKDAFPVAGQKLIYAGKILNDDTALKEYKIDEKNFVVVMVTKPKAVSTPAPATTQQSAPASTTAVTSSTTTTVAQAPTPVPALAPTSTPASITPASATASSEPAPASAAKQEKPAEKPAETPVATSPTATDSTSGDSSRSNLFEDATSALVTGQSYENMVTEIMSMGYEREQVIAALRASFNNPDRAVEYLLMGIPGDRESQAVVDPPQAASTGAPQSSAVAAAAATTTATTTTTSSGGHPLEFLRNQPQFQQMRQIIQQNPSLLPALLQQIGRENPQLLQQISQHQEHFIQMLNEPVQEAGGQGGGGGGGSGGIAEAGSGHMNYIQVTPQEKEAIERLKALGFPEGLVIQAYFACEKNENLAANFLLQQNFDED

T3: GST-hHR23B, residues 262–409 (human, UniProt P54727 262-409)
T3 construct: human hHR23B, residues 262–409; also called C-terminal half of hHR23B; source: recombinant
T3 sequence (looked up): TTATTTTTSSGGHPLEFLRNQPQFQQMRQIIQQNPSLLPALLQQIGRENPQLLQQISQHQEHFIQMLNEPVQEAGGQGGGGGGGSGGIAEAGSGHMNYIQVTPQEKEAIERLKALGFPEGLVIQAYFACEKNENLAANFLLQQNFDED

T4: GST-hHR23A, residues 1–363 (WT hHR23AFL) (human, UniProt P54725 1-363)
T4 construct: human hHR23A, full length, residues 1–363; also called GST-tagged WT hHR23A; source: recombinant
T4 sequence (looked up): T1 sequence (looked up)

B1: NusA–Vpr_(1–79) (domain or fragment)
chain: MEQAPEDQGPQREPYNEWTLELLEELKSEAVRHFPRIWLHNLGQHIYETYGDTWAGVEAIIRILQQLLFIHFRIGCRHS
notes: HIV-1 Vpr, residues 1-79; source: E. coli Rosetta 2 (DE3) or Rosetta 2 (DE3) pLysS, purified (HisTrap, gel filtration)
B2: recombinant VprFL (from NusA–VprFL) (natural protein)
chain: MEQAPEDQGPQREPYNEWTLELLEELKSEAVRHFPRIWLHNLGQHIYETYGDTWAGVEAIIRILQQLLFIHFRIGCRHSRIGVTRQRRARNGASRS
notes: HIV-1 Vpr, full length (FL); also called VprFL WT; source: recombinant NusA–VprFL
B3: recombinant VprFL L67A/I70A (natural protein)
chain: B2 chain with L67A, I70A
notes: HIV-1 Vpr, full length, with L67A and I70A; also called L67A/I70A double mutant; source: recombinant NusA–VprFL
B4: recombinant VprFL H45A (natural protein)
chain: B2 chain with H45A
notes: HIV-1 Vpr, full length, with H45A; source: recombinant NusA–VprFL
B5: recombinant VprFL R73A (natural protein)
chain: B2 chain with R73A
notes: HIV-1 Vpr, full length, with R73A; source: recombinant NusA–VprFL
B6: recombinant VprFL Y50S (natural protein)
chain: B2 chain with Y50S
notes: HIV-1 Vpr, full length, with Y50S; source: recombinant NusA–VprFL

How the values were obtained:
Conditions in all cases: both partners purified
DCAF1_(1045–1396)/DDB1 = target: T5, DCAF1_(1045–1396)/DDB1 (UniProt Q9Y4B6 1045-1396; Q16531 1-1140); assay: ITC; NusA–Vpr1–79 (8.5 µM) in the cell, Trx-hHR23AFL or DCAF1 1045–1396/DDB1 (100 μM) added in aliquots; 18 °C; 20 mM sodium phosphate pH 7.4, 100 mM NaCl
T5 construct: DCAF1, residues 1045-1396; DDB1

Trx-hHR23AFL = target: T1, Trx-hHR23AFL; assay: as above
[1] = target: T2, GST-hHR23B, residues 1–409; assay: pull-down; 1000 pmol GST-tagged hHR23A/B and 1000 pmol NusA–VprFL in 500 μl PBS, 30 min 4 °C; TEV cleavage overnight at 4 °C; Glutathion-Sepharose 4B beads; anti-His immunoblot
[2] = target: T3, GST-hHR23B, residues 262–409; assay: as above
[3] = target: T4, GST-hHR23A, residues 1–363 (WT hHR23AFL); assay: as above

T5 sequence (Q9Y4B6 1045-1396, chain 1 of 2): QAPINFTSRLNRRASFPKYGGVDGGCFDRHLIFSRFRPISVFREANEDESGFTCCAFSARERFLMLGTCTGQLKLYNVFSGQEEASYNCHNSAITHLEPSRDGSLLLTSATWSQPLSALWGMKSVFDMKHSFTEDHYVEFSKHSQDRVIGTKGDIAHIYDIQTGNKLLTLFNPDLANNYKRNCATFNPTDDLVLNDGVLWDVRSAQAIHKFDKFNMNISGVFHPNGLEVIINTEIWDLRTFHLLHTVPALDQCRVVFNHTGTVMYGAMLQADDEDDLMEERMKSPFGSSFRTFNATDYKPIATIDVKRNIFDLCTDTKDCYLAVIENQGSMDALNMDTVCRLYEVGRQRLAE
T5 sequence (Q16531 whole entry, chain 2 of 2, the tested form may be a part): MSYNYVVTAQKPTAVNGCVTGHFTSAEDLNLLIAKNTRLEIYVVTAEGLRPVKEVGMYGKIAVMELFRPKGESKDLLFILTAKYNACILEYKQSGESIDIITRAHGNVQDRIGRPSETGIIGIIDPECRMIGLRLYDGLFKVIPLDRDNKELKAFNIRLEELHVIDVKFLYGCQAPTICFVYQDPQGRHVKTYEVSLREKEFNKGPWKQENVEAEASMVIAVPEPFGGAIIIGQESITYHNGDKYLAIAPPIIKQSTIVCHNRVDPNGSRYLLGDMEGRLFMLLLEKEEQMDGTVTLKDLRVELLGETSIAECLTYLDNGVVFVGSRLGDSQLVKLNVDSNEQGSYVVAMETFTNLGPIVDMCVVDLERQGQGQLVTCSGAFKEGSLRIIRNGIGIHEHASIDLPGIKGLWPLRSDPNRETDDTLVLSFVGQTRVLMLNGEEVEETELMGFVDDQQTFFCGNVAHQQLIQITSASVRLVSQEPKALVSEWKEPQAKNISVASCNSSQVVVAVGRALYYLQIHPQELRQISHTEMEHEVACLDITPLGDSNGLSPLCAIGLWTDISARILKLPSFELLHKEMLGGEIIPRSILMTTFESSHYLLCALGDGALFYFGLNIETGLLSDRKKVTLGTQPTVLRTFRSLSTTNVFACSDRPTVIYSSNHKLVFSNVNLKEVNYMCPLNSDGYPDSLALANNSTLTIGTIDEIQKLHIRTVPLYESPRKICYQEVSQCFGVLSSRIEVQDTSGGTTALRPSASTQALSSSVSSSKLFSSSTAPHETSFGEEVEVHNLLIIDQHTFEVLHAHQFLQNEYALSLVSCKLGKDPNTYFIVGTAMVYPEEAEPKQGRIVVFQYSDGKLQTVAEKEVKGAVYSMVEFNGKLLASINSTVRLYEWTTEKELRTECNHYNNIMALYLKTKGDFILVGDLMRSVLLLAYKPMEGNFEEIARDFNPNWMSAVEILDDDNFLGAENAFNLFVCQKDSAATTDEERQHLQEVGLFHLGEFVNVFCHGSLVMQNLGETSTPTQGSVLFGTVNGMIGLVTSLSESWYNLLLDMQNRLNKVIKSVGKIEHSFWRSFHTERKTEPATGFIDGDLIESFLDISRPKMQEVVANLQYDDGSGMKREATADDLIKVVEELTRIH

Row | Binder | binding result [3] | also measured
1 | B1 | – | Kd (DCAF1_(1045–1396)/DDB1): 116 ± 47 nM; Kd (Trx-hHR23AFL): 640 ± 408 nM
2 | B2 | binds | binding result [1]: binds; binding result [2]: binds
3 | B3 | binds | –
4 | B4 | binds | –
5 | B5 | binds | –
6 | B6 | binds | –
